# Measured values as given in the DeepSol protein solubility set.
# Assay: soluble on expression in E. coli; label from the status in PepcDB or PDB records
row,Sequence,soluble on expression in E. coli
1,GPGSTGRSQATRTQERQEGRKKDMESKGTPTTRHPHVLTTARRKKETLWHGTPKRQTNPTTAVASKSEVVATSPHDGGSGRLPEDSQEATDEVVTLSSASSPLSRTLDGSCMPFAPPLGSDMAVTVACGPVNRTSLLSTEEKTAHAILGQADAMTDRRRSEEMLYYLEAARALREVTSGVEAREQCLRDEIERQSTLYSAKKLDLAEKQKVYERLHESTLRLTRNVRRIDSENDRIRDRLTKLQMTIEKMESRKLPRHIQQDVDRVVRCESVPSWQGANQRVGGCEAIVPMRSVGSVAKNTLMTELEMYTRKLRSAEVRHDKLIKELQLAVARRKGRAAAYNSFGASLSFSGYSGMGNRDGSFLTDSVGESIAIQQLERMIDDSLIRCK,not soluble
2,MQYGAIVVTFNRKQLLIESITALLNQTVPPAKIIIIDNHSTDGTKAELQTADILANPSVDYRYLTKNIGGAGGFARGMQIAAADPNLDWASMSDDDAIFEPDYFEKLIAYQQDHPNRQILTGSVYIEDGRLQADQRNRFTNWSTFQAQAVPEREYRGNFEFDQYTFCGVFMSVAVIKQVGVADAGYFIWWDDCEYAVRTAKLSRPVNVSAAKLIHKTALPSLDFKSKFVPDWRLYYGQRNRLITIKRWRANSLVSLGWLLGFYARLAIQLCGPFYRGYRKMVIRVYLEALRDASREREGLNPNFMPGQKFLEHHHHHH,soluble
3,MIKLSEKGVFLASNNEIIAEEHFTGEIKKEEAKKGTIAWSILSSHNTSGNMDKLKIKFDSLASHDITFVGIVQTAKASGMERFPLPYVLTNCHNSLCAVGGTINGDDHVFGLSAAQRYGGIFVPPHIAVIHQYMREMMAGGGKMILGSDSHTRYGALGTMAVGEGGGELVKQLLNDTWDIDYPGVVAVHLTGKPAPYVGPQDVALAIIGAVFKNGYVKNKVMEFVGPGVSALSTDFRNSVDVMTTETTCLSSVWQTDEEVHNWLALHGRGQDYCQLNPQPMAYYDGCISVDLSAIKPMIALPFHPSNVYEIDTLNQNLTDILREIEIESERVAHGKAKLSLLDKVENGRLKVQQGIIAGCSGGNYENVIAAANALRGQSCGNDTFSLAVYPSSQPVFMDLAKKGVVADLIGAGAIIRTAFCGPCFGAGDTPINNGLSIRHTTRNFPNREGSKPANGQMSAVALMDARSIAATAANGGYLTSASELDCWDNVPEYAFDVTPYKNRVYQGFVKGATQQPLIYGPNIKDWPELGALTDNIVLKVCSKILDEVTTTDELIPSGETSSYRSNPIGLAEFTLSRRDPGYVSRSKATAELENQRLAGNVSELTEVFARIKQIAGQEHIDPLQTEIGSMVYAVKPGDGSAREQAASCQRVIGGLANIAEEYATKRYRSNVINWGMLPLQMAEVPTFEVGDYIYIPGIKAALDNPGTTFKGYVIHEDAPVTEITLYMESLTAEEREIIKAGSLINFNKNRQM,soluble
4,MGSDKIHHHHHHMKLSGWGRFPNVDCTVRVARSEVDVRAAVAASPLIARGNGRAYGDAALNRGLTLDMTGMDRMLSFEDGVLVAEAGVLLGDIIHTFLPRGWFPMVTPGTKYVSLGGAIAADVHGKNHHLDGSFRSCVDWVDLMGPDGAVTRVTREDDLFDWTLGGMGLTGVILRAQIRLRAVETSFIAQETRALTSLTDTLEAFEDTLDALYSVAWIDCSDGPHHGHSLLLLGRHATPGDLPKRQKPLEVKRRAKLPVPFGAPPFLFRGLWLRALNGIYWRRGAKRAGHTIVDWDSYFYPLDALANWNRLYGRNGFLQFQCALPLETAADGLAALMAEIAASQSGSVLSVLKRFGPQSGHFSFPMPGYTLALDFPANERSLALMERLDAITLAHKGRFYLAKDARMPEAVVKADARAEAFAAMRTQMGLRDRFASEQSERLGL,not soluble
5,MTEQSAHEKYEFKKKLEGLRDKKGRSTELISLYIPPDKQIFDVTNQLKDEHGQAANIKSKLTRTNVQGAIESLLSRLRYLDKVPENGIVYFTGAVDIGANKTSMESEVIVPPDPITVYKYHCDSSFYLEPLEDMLKDKNTYGLLVLDRREATIGLLVGKRIQPFRNLTSTVPGKQRKGGQSAHRFQQLRLIAIHDFYKRIGDAASEVFMAVDHKDLKGVLIGGPSPTKEEFHAGEFLHHELMKKILGLFDTAYTDESGLSELVNAAGEKLQDLELMGQKNAVRDFFKELIADSGKVAYGESQVRANLEINSVDVLLLSEDLRAERVTTKCSVCGYENKWTRRWKPGEPAPAAGNCPKCGSSLEVTDVTDIVDEFSELADKSNAKVVFVSTDFDEGSQLMNAFGGIAAILRYNTGV,not soluble
6,GAMAEYEIDEITFHKRLGILLTSWKNEEDGKTLFQDCDSILVTVGAHDDTNPYQKSTALHTWLLGYEFPSTLILLEKHRITILTSVNKANMLTKLAETKGAAADVNILKRTKDAEENKKLFEKIIEYIRATNKKVGVFPKDKTQGKFINEWDSIFEPVKSEFNLVDASLGLAKCLAIKDEQELANIKGASRVSVAVMSKYFVDELSTYIDQGKKITHSKFSDQMESLIDNEAFFQTKSLKLGDIDLDQLEWCYTPIIQSGGSYDLKPSAITDDRNLHGDVVLCSLGFRYKSYCSNVGRTYLFDPDSEQQKNYSFLVALQKKLFEYCRDGAVIGDIYTKILGLIRAKRPDLEPNFVRNLGAGIGIEFRESSLLVNAKNPRVLQAGMTLNLSIGFGNLINPHPKNSQSKEYALLLIDTIQITRSDPIVFTDSPKAQGDISYFFGED,soluble
7,MKSILEQLSSMTVVVADTGDLDSIKKFQPRDATTNPSLILAAAKNPDYVKLIDKAIESSENTLPNGFSEIELIKETVDQVSVFFGKEILKIISGRVSTEVDARLSFDTEATVKKARKLINLYKNFGIEKERILIKIAATWEGIKAAEILEKEGIKCNLTLLFNFCQAVTCANANITLISPFVGRILDWHKAKTGKTSFIGAEDPGVISVTQIYKYFKEKGFKTEVMGASFRNLDEIKELAGCDLLTIAPKFLEELKREKGVLIRKLDASTKINNSIDYKFEEKDFRLSMLEDQMASEKLSEGITGFSKAIEELEELLIERLSEMKNHKLISAN,soluble
8,MSLALAIFDLDETLIHGDCASLWSEQMARLGWVDGKDFLRRDHELMEAYGRGHLQMEDYMAFSLEPIAGRTLEEVEHLVAPWVEEVIEPIIYGDACRCIAEHRKRGDRILIISASGTHLVGPIAARLGVDEYLAIELEAVNGVYTGKTHGVLTYREGKITRLLEWLDQEQENLEGASFYSDSRNDLPLLLRVDHPHVVNPDAVLREHAEINGWPTLSWSEGHHHHHH,soluble
9,MGLKKCGLNLSRDNKELKPHGTIDFPCAGYSSCYRDSEDDIIPWHWHPELEILYIKSGNLKLKLPEKTFHLTPGDGFIVNSNVLHYAVAEPLCELHSIVFSPLLITGWEGSVFAEKYIGPLVRCPSFDGCSLNCLFPEPEMFENLFTAAFHALAEDLPGYEFTLREALSKLCYALCLRFGPETGDDCPAPSPDAERLRRMLDYIHCHYSEPLKLSQIAEAADIGERECLRCFSRMIQVSPIQYLLKYRVNQSASLLLREPGKNITAIAGGCGFDSPGNFSRIFKRYYKCSPKEYRSRNKE,soluble
10,MSLCAPNTGRFLLTGTPLPMLSYRHSFHAGNHADVLKHTVQSLIIESLKEKDKPFLYLDTHAGAGRYQLGSEHAERTGEYLEGIARIWQQDDLPAELEAYINVVKHFNRSGQLRYYPGSPLIARQLLREQDSLQLTELHPSDYPLLRSEFQKDSRARVEKADGFQQLKAKLPPVSRRGLILIDPPYEMKTDYQAVVSGIAEGYKRFATGTYALWYPVVLRQQIKRMIHDLEATGIRKILQIELAVLPDSDRRGMTASGMIVINPPWKLEQQMNNVLPWLHSKLVPAGTGHATVSWIVPEEGHHHHHH,soluble
11,GIDVIGKKMTLCQLYAKQNAVRPNVKANTKSGRKYLMEILKNDRLGARSIDSIKPSDAKEWAIRMSENGFAYSTINNYKRSLRASFYIAIQDDYVRKNPFDFQLNTVIDDDTIPKTVLTSEQEARLLDFAKSDTVYHKNYDEILILLKTGLRISELCGLTVSDLDFENHLISVDHQLLRNTELGYYIETPKTKSSERQIPMEATCQALKRTLAKRDDRKCVEIDGYSHFLFLNRKGYPKTSGDFDRILRNLIKKYNKYHEEKLPHITPHTLRHTFCTNCANAGMNPKALQYIMGHANITMTLNYYAHATYKFGYG,not soluble
